Reference: article PMC5584141 (The Journal of Cell Biology, 2017)
Numbering of substitutions follows the chain as printed.

T1: GPC6-AP fusion protein (UniProt Q9R087 24-530, carries glycosaminoglycan (GAG) chains; biotinylated with EZ-link Sulfo-NHS-LC biotin for SPR)
T1 sequence: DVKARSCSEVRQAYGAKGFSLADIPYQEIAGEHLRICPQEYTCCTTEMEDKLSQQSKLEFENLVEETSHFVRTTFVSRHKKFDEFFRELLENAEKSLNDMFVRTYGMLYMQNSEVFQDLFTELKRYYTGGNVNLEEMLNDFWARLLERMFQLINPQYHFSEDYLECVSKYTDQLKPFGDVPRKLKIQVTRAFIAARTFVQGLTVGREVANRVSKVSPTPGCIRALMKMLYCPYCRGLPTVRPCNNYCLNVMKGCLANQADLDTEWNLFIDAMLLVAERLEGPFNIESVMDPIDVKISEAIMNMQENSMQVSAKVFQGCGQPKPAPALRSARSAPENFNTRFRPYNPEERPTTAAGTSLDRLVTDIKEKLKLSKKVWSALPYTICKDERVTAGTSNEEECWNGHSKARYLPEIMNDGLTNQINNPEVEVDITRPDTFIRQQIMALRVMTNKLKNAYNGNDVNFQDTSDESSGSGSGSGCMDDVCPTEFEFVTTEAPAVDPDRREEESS

B1: recombinant Ihh (ligand)
chain: not shown
B2: GPC6ΔGAG-AP fusion protein (natural protein)
chain: T1 sequence with S470A, S472A, S474A, S476A
modifications: biotinylated with EZ-link Sulfo-NHS-LC biotin for SPR

What was measured:
Test in all cases: SPR
GPC6-AP fusion protein = molecular target: T1, GPC6-AP fusion protein
recombinant Shh = recombinant Shh (UniProt Q62226 25-198)
Sequence of recombinant Shh (Q62226 25-198): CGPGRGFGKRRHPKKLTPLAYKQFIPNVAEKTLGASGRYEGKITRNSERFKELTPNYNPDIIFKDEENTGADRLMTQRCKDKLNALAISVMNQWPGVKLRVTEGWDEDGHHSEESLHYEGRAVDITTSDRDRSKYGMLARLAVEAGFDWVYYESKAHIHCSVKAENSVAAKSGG

recombinant Ihh = molecular target: B1
Sequence of recombinant Ihh (P97812 28-202): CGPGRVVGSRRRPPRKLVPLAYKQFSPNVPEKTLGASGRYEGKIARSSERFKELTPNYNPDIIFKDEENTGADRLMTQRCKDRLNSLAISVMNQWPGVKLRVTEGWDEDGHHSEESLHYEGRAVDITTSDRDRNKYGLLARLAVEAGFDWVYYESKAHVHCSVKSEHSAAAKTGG

B1
Kd (GPC6-AP fusion protein): 14 nM

B2
Kd (recombinant Shh): 21 nM
Kd (recombinant Ihh): 16 nM
